Literature values, collected in US12180485B2, “Repressible control of gene expression” (TRUSTEES OF BOSTON UNIVERSITY, priority 2020, dated 2024).

Key:
[1] = target: NS3a-genotype 1b (Hepatitis C virus genotype 1b, UniProt P26663, A1092G/F1173S/K1113A/P1112Q); conditions: disrupted by NS3a-targeting drugs; read-out: affinity of basal complex with NS3a-genotype 1b; cited from earlier work
[2] = read-out: affinity (Kd); cited from earlier work
[3] = test system: luciferase and endogenous transcripts; conditions: cited from earlier work
[4] = target: NS3a/danoprevir complex (Hepatitis C virus genotype 1a, UniProt P27958, T1100M/T1173A); conditions: cited from earlier work
[5] = target: apo NS3a (Hepatitis C virus genotype 1a, UniProt P27958, T1100M/T1173A); conditions: cited from earlier work

GELDELVYLLDGPGYDPIHSD [ANR]
Kd [1]: 10 nM

B1: aCaffVHH: VHH camelid antibody that specifically binds to caffeine, SEQ ID NO: 1980 (protein)
VHH: EVQLQASGGGLVQAGGSLRLSCTASGRTGTIYSMAWFRQAPGKEREFLATVGWSSGITYYMDSVKGRFTISRDNAKNSAYLQMNSLKPEDTAVYYCTATRAYSVGYDYWGQGTQVTVSH
Kd [2]: 500 nM

B2: LwaCas13b: Leptotrichia wadei Cas13a, SEQ ID NO: 2 (protein, listed as Leptotrichia wadei)
chain: MKVTKVDGISHKKYIEEGKLVKSTSEENRTSERLSELLSIRLDIYIKNPDNASEEENRIRRENLKKFFSNKVLHLKDSVLYLKNRKEKNAVQDKNYSEEDISEYDLKNKNSFSVLKKILLNEDVNSEELEIFRKDVEAKLNKINSLKYSFEENKANYQKINENNVEKVGGKSKRNIIYDYYRESAKRNDYINNVQEAFDKLYKKEDIEKLFFLIENSKKHEKYKIREYYHKIIGRKNDKENFAKIIYEEIQNVNNIKELIEKIPDMSELKKSQVFYKYYLDKEELNDKNIKYAFCHFVEIEMSQLLKNYVYKRLSNISNDKIKRIFEYQNLKKLIENKLLNKLDTYVRNCGKYNYYLQVGEIATSDFIARNRQNEAFLRNIIGVSSVAYFSLRNILETENENGITGRMRGKTVKNNKGEEKYVSGEVDKIYNENKQNEVKENLKMFYSYDFNMDNKNEIEDFFANIDEAISSIRHGIVHFNLELEGKDIFAFKNIAPSEISKKMFQNEINEKKLKLKIFKQLNSANVFNYYEKDVIIKYLKNTKFNFVNKNIPFVPSFTKLYNKIEDLRNTLKFFWSVPKDKEEKDAQIYLLKNIYYGEFLNKFVKNSKVFFKITNEVIKINKQRNQKTGHYKYQKFENIEKTVPVEYLAIIQSREMINNQDKEEKNTYIDFIQQIFLKGFIDYLNKNNLKYIESNNNNDNNDIFSKIKIKKDNKEKYDKILKNYEKHNRNKEIPHEINEFVREIKLGKILKYTENLNMFYLILKLLNHKELTNLKGSLEKYQSANKEETFSDELELINLLNLDNNRVTEDFELEANEIGKFLDFNENKIKDRKELKKFDTNKIYFDGENIIKHRAFYNIKKYGMLNLLEKIADKAKYKISLKELKEYSNKKNEIEKNYTMQQNLHRKYARPKKDEKFNDEDYKEYEKAIGNIQKYTHLKNKVEFNELNLLQGLLLKILHRLVGYTSIWERDLRFRLKGEFPENHYIEEIFNFDNSKNVKYKSGQIVEKYINFYKELYKDNVEKRSIYSDKKVKKLKQEKKDLYIRNYIAHFNYIPHAEISLLEVLENLRKLLSYDRKLKNAIMKSIVDILKEYGFVATFKIGADKKIEIQTLESEKIVHLKNLKKKKLMTDRNSEELCELVKVMFEYKALE
knockdown efficiency [3]: 50%

B3: DNCR2: danoprevir/NS3 complex reader, SEQ ID NO: 163 (protein)
chain: SSDEEEARELIERAKEAAERAQEAAERTGDPRVRELARELKRLAQEAAEEVKRDPSSSDVNEALKLIVEAIEAAVDALEAAERTGDPEVRELARELVRLAVEAAEEVQRNPSSSDVNEALHSIVYAIEAAIFALEAAERTGDPEVRELARELVRLAVEAAEEVQRNPSSRNVEHALMRIVLAIYLAEENLREAEESGDPEKREKARERVREAVERAEEVQRDPSGWLNH
selectivity over NS3a bound to the drugs grazoprevir or asunaprevir [4]: > 20,000 fold | binding to free danoprevir ([4]; free danoprevir, no NS3a): does not bind substantially | Kd ([4]; read-out: affinity for the NS3a/danoprevir complex): 0.036 nM | binding to apo NS3a [5]: no detectable binding
